From patent US8841272B2, “Double-stranded RNA-based nanoparticles for insect gene silencing” (Kansas State University Research Foundation, priority 2011, dated 2014)

B1: dsAgCHS1-f1: dsRNA synthesized using residues 2,267 to 2,635 of SEQ ID NO: 1 as the template (nucleic acid, listed as Anopheles gambiae)
DNA: TGAAACGCACATCTTCTTCGATGACGCGTTCGAAATTTCGGACCACAGCGACGAGGACATTCAGTGTAATCGGTTCGTGAAGATTCTTGTCGACACCATCGACGAAGCTGCCTCGGAAGTGCATCAGACCAACATTCGATTGAGACCGCCCAAAAAGTACCCAACACCGTACGGTGGACGACTGGTGTGGACGCTGCCCGGTAAAACGAAGATGATTGCCCACCTGAAGGACAAGGATCGCATCCGGCACCGTAAGCGTTGGTCTCAGGTCATGTACATGTACTATCTGCTCGGCCACCGGCTGATGGAGCTGCCGATTTCCGTCGACCGTAAGGAGGTGATGGCGGAAAACACCTACCTGCTGACGCT
modifications: double-stranded RNA
B2: dsAgCHS2-f2: dsRNA synthesized using residues 3,331 to 3,719 of SEQ ID NO: 3 as the template (nucleic acid, listed as Anopheles gambiae)
DNA: GCCAGCGCCGAAAAGGAGCAAATCGCACAAATTGCGGCATCGCTCAGCGAAATAAGTGTAAAAATGAAGGCACTGGAAATGAAATTAACCGGCAACGTCAGCGTAATGAGATCAGACGACGAAGATGATGACATCGGTAGTCTCGATATGCATCGTCCGGAAGGTAACCGTGGCCCATCCTCGCCATCCTCCACCTCGGGCGCCGCCTCCCCGATCCAGACGGTGAAAAATGATTCCCTCGAAGAGCCCGAGAAGCAGATTAACTATCTGCCGGATTGGTTGTACGACGTGGATTTGAAAAACGGCGACACTGAGACGATCTCCGCCTCGGAGGAGCAATTCTGGATTGAGCTGATCGAGAAGTATCTGAAGCCGCTCGATCTGTCGGA
modifications: double-stranded RNA
B3: dsAgCHS2-f1: dsRNA synthesized using residues 3,846 to 4,235 of SEQ ID NO: 3 as the template (nucleic acid, listed as Anopheles gambiae)
DNA: ACACATCGAGTGGTGGTTCAACGTGAAGAACAAGATCAGCTTTGACGAAAGCACGGTCGAGATCATGATCCGGCGCGAGTACCTGGAGCTCGAACCGATCGGTTTGGTGTTTGTGATGTTCTTCGGTTTGATTCTCATCATTCAGTTTGTGGCCATGCTGATGCATCGGTTCGGTACCATCTCCCAGATTCTTGCCTCCACCGAGCTGAACTGGTACTGTTCGAAGAAGGCTAAGGATATGTCACTCGATGCGGAACTGCGCGAGAATGCGGTCGAAATTGCACGTCGACTGCAGCGCCCCAAACCGCAGTGGGACGAGGAAGATCTAGAGGACGAGCAGAAAGCTATTGGACGTCGCGACACGATCCATCGCATTCTCTACCAGCACAA
modifications: double-stranded RNA
B4: dsAgCHS1-f2: dsRNA synthesized using residues 3,812 to 4,202 of SEQ ID NO: 1 as the template (nucleic acid, listed as Anopheles gambiae)
DNA: CAAAACGACGGACGAGAAGGCGCAGCTGATTCACATTGCCGATGCGCTGGACGCCATTACGAAGAAGATTGAGAATCTGGAAAAGCACATCGACCCGCACGGACATCATACGCGCAAGCGCACTGCGTCGGCGGGGTCGAAGGATCACCATCTCGGCTCGGTGGCGGAGGATACGGAGGACGATGATGAGGATGAAGATTCGGAGACTTCGACGCTGCAGCGCGACGAGCGCGACTTCCTCACCAACCCGTACTGGATCGAGGATCCGGATCTGAAGAAGGGCGAGGTGGACTTTATTTCCAGCACCGAGATCCAGTTCTGGAAGGACCTGATCGATAAGTACCTATACCCGATCGATCAAAACAAGGAGGAACAGGCACGTATTGCGCAC
modifications: double-stranded RNA

tested on: AgCHS1; assay: qPCR of AgCHS1 transcript level in mosquito larvae after larval feeding; assay type: in vivo, Anopheles gambiae; conditions: 3rd-instar larvae fed once a day for 4 days on dsRNA nanoparticles, vs GFP dsRNA nanoparticles
Procedure: (§1) A group of 15-20 3rd-instar mosquito larvae was transferred into a 500-ml glass beaker containing 100 ml of deionized water. One sixth of the gel slices that were prepared from 32 μg of dsRNA, as described above, were added into each beaker. Approximately an equal amount of the gel slices was used to feed the larvae once a day for a total of four days. Any potential phenotypic changes were visually examined in the larvae during the experiment. The transcript levels of AgCHS1 or AgCHS2, chitin contents, and other phenotypic changes were assessed in the larvae at the end of the experiment (i.e., day 4).
(§2) Total RNA was extracted from mosquito larvae with TRIzol reagent (Invitrogen, Carlsbad, Calif.) and 3.5 μg of total RNA was used for first strand cDNA synthesis using the First Strand cDNA Synthesis kit (Fermentas, Glen Burnie, Md.). The first strand cDNA was then used as template for PCR and qPCR. A gene encoding ribosomal protein S3, AgRPS3, was used as an internal reference. PCR was performed with a PCR Master Mix kit (Fermentas). The qPCR was performed using a Maxima SYBR Green qPCR Master Mix (Fermentas), and the 2^−ΔΔCT method was used to calculate the relative levels of AgCHS1 and AgCHS2 transcripts in the mosquito larvae fed on the food containing the AgCHS1 or AgCHS2 dsRNA-based nanoparticles as compared with the control larvae fed on the food containing the GFP dsRNA-based nanoparticles.
(§3) For data obtained from qPCR, relative expression levels in percentage were calculated by dividing the relative expression value (REV) of each gene in the AgCHS dsRNA-treated larvae by the REV of the same gene in the GFP dsRNA-treated larvae. After the percentage data of the relative AgCHS expression were transformed using arcsine square root transformation, the transformed data were subjected to ANOVA followed by Fisher's least significant difference (LSD) multiple comparisons to separate the means among the treatments using ProStat software (Poly Software International, Pearl River, N.Y.).

Point of comparison: B1, “repression of the transcript level of AgCHS1” value (shortened to “repression … of AgCHS1”) 62.8%. Against it:
- B4 — lower, 52.4%

With B2 the “repression … of AgCHS1” value was “none of these AgCHS2 dsRNAs repressed”.
In the case of B3, the “repression … of AgCHS1” value is reported as “none of these AgCHS2 dsRNAs repressed”.

tested on: AgCHS2; assay: qPCR of AgCHS2 transcript level in mosquito larvae after larval feeding; assay type: in vivo, Anopheles gambiae; conditions: 3rd-instar larvae fed once a day for 4 days on dsRNA nanoparticles, vs GFP dsRNA nanoparticles
Procedure: as §1, §2, §3

Point of comparison: B2, “repression of the transcript level of AgCHS2” value 48.8%. Against it:
- B1 — lower, 48.4%
- B3 — higher, 63.4%
- B4 — higher, 57.9%
